From the nanobody polyreactivity screen of Harvey et al. (2022)

Experiment: yeast display, Sf9 membrane polyspecificity reagent, FACS + sequencing; frameworks hold sequencing errors
Procedure, shortened: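 Nanobodies came from a synthetic yeast display library in Saccharomyces cerevisiae BJ5465, induced with galactose for 36–48 hours and stained for 1 hour at 4 °C with 10% biotinylated, detergent-solubilized Sf9 membrane reagent. Cells were enriched on streptavidin microbeads and then FACS-sorted, with low and high (top ~1%) gates set on anti-HA fluorescence for expression and streptavidin fluorescence for reagent binding. Each polyreactivity label reflects the gate a clone came from. Genes were amplified by colony PCR, sequenced by MiSeq 2 × 250 and filtered by CDR length.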

Row | Sequence | polyreactivity (PSR sort gate)
1 | HVQLVESGGGLVQAGGSLRLSCAASGSIFVSYGMGWYRQAPGKEWELVASISNSAGSTYYADSVKGRFTISRDNAQNTVYLQMNSLKPDDTAVYSCAADYWVWAYGGYDAYNYWGQGTQVTVSS | high polyreactivity
2 | HVQLVESGGGLVQAGGSLRLSCAASGSILDGKALGWYRQAPGKERERVAGISESDGSTNYADSVKGRFTISRDNAKNTVYLQMNSLKPEDTAVSYCAADIWTSGDIPYDYWGQGTQVTVSS | low polyreactivity
3 | HVQLVESGGGLVQAGGSLRLSCAASGSTFSYYAMGWYRQAPGKERELVAAITSGGRTKYADSVKGRFTISRDNAKNTVYLQMNSLKPEDTAVYYCAKRIEKFSGSLAGRWYDYWGQGTQVTVSS | high polyreactivity
4 | HVQLVESGGGLVQAGGSLRLSCAASGSTFTVNAMGWYRQAPGKERELVAAISASGGRTYYADSVKGRFTISRDNAKNTVYLQMNSLKPEDTAVYYCAARFRTWGNREAGYYWGQGTQVTVSS | high polyreactivity
5 | HVQLVESGGGLVQAGGSLRLSCAASGSTFYNYAMGWYRQAPGNERELVAGISSGVTTNYADSVKGRYTISRDNAKNTVYLQMNSLKPEDTAVYYCAAVHSWYARYLGGEDYDYWGQGTQVTVSS | low polyreactivity
6 | HVQLVESGGGLVQAGGSLRLSCAASGYTFWDYAMGWYRQAPGKEREFVAGISFSDGGTYYADSVKGRFTISRDNAKNTVYLQMNSLKPEDTAVYYCAATYPYSWVYSGYYYWGQGTQVTVSS | low polyreactivity
7 | HVQLVESGGGLVQAGGSLRLSCAASVITFVPYAMGWYRQATGKERELVAAISWSGGSTYYADSVKGRFTISRDNAKNTVYLQMNSLKPEDTAVYYCAAQHDVRYDYWGQGTQVTVSS | low polyreactivity
8 | HVQLVESGGGLVQAGGSLRLSCASSGSIFWANAMGWYRQAPGKERELVATITSGGRTYYADSVKGRFTISRDNAKNTVYLQMNSLKPEDTAVYYCARVPPQYRWGRRLVYVHVDYWGQGTQVTVSS | low polyreactivity
9 | HVQLVESGGGLVQAGGSLRVSCAASGRTFWSYTMGWYRQAPGKERELVASITYRGGSTYYADSVKGRFTISRDNAKNTVYLQMNSQKPEDTAVYYCNARYKRYSYDYWGQGTQVTVTS | high polyreactivity
10 | HVQLVESGGGLVQAGGSRLLSCAASGFTIYANAMGWYSQAPGKERELVAAITWRGGSTYYADSVKVRFTISRDNAKNTVYLQMNSLKPADTAVYYCNALKGRPVRSYLASPSYRYEYWGQGTQVTVSS | high polyreactivity
11 | HVQLVESGGRLVQAGGSLRLSCAASGIIFGYYAMGWYRQAPGNERELVAAIDWTGGNTYYADSVKGRFRISRDIAKNTVYLQMNSLKPEDTAVYYCAADYYSQEDYWGQGTQVTVSS | low polyreactivity
12 | HVQLVESGGRLVQAGGSLRLSCAASGSIFVPNAMGWYRQAPGKERELVATISWSGGSTYADCVKGRFTISRDNAKNTVYLQMKSLKPEDTAVYYCNARRYDPGSRYDYWGQGTQVTVSS | low polyreactivity
13 | HVQPQESGGGLVQAGGSLRLSCAASGTISADYKMGWYRQAPGKEREFVAANAFGAFTNYADSVKGRFTISRDIAKNTVYLQMNSLKPEDTAVYYCAADLYYYAYDYWGQGTQVTVSS | high polyreactivity
14 | KCQLVDSGGGLVQAGGSLRLSCAASGSIFYVKAMGWYRQAPGKEREFVADITYTGGSTYYADSVNGRFTISRDNAKNTVYLQMNSLKPEDTAVYYCAADLYTTYVAIYDYWGQGTQVTVSS | low polyreactivity
15 | KVQLGVSGGGLVQAGGSLRLSCASSGFIFRYYAMGWSRQAPGKERELVAGISSGGSTYYADSVKGRFTISRDNAKNTVYLKMNSLKPEDTAVYYCNAVYSSGVDGSEGFDYWGQGTQVTVSS | low polyreactivity
16 | KVQLLYSAGGLVHAGGSLRLSCAASGNIFRSYAMGWYRQAPGKERELVAAISSRGGSTYYADTVKVRFTISRDNAMNTVYLQMNSLKPEDTAVYYCNAPSTQQGPKYDYWGQGTQVTVSS | low polyreactivity

Row | Sequence | polyreactivity (PSR sort gate)
17 | KVQLQESDGALVQAGGSLRLSCAASGSISPQYYMGWYRQAPGKEREFVAISKGTTTYYADSVKGRLTISRVNAKNTVYLQMNSLKPEDTAVYCCAAGRWLQKVPAYWDQGTQVTVSS | low polyreactivity
18 | KVQLVESGGGLVQAGGRLRLSCAASGGTFVINVMGWYRQAPGKERELVAAISWNGDSTYYADSVKGRFTISRDNAKNTVYLQMNSLKPEDTAVYYCATDTWRVYYAYWQFGVWELGYWGQGTQVTVSS | low polyreactivity
19 | KVQLVESGGGLVQAGGSLRFSCAPSGSIFSGNTMGWYRQAPGKEREMVAAITRSGDTTYYADSVKGRFTISRDYAKNTVYLQMNSLKPEDTAFYYCAAALPRYRSRAIRVEFWGQGSQVTVSS | high polyreactivity
20 | KVQLVESGGGLVQAGGSLRISCAASGRICWGYVMGWYRQAPGKERELVAAISSGGDTHYADSVKGRFTISRDNAKNTVYLQMNSLKPEDTGVYYCAARPNFTPYEYGYWGQGTQVTVSS | low polyreactivity
21 | KVQLVESGGGLVQAGGSLRISCAASGSTLYRYAMGWYRQAPGKERELVAAISSSGGSTYYADSVKGRFTISRDNAKNTVYLQMNSLKPEDTAVYYCARVAPASGVRWYYYWGQGTQVTVSS | high polyreactivity
22 | KVQLVESGGGLVQAGGSLRLSCAASGFTFRSYAMGWYRQAPGKERDFVAAITINGGSTYYADSVKGRFTISRDNAKNTVYLQMNSLKPEDTAVYYCAAGTLYRIRGYPLWQYDYWGQGTQVTVSS | high polyreactivity
23 | KVQLVESGGGLVQAGGSLRLSCAASGGTFYRYAMGWYRQAPGKERELVAAITSGSSTYYADSVKGRFTISRDNAKNTVYLQMNSLKPEDTAVYYCAAARYSRLSRTRPGKYGYWGQGTQVTVSS | low polyreactivity
24 | KVQLVESGGGLVQAGGSLRLSCAASGNIFIPYAMGWYRQAPGKEREFVAVISTRGGSTYYADSLKGRFTISRDNAKNTVYLQMNSLKPEYTAVYYCAAGALGPRIKGWWFRRSFFYWGQGTQVTVSS | high polyreactivity
25 | KVQLVESGGGLVQAGGSLRLSCAASGRIFVGYAMGWYRQAPGKERELVAAINRSGSSTYYADSVKGRFTISRYNAKNTVYLQMNSLKPEDTAVYYCNARSGKRYGPRYDYWGQGTQVNVSS | high polyreactivity
26 | KVQLVESGGGLVQAGGSLRLSCAASGSIFPSYVMGWYRQAPGKERELVAAITKSTGTTYYADSVKGRFTISRDNAKNTVYLQMNSLKPEDTAVYYCNAPYWFSPGYGGFEFGYDYWGQGTQVTVSS | low polyreactivity
27 | KVQLVESGGGLVQAGGSLRLSCAASGSIISGNAMGWYRQAPGKERELVAAISRSGGRTYYADSVKGRFTISRDNAKNTVYLQMNSLKPEDTAVYFCAAGRSLRGDYWGQGTQVTVSS | high polyreactivity
28 | KVQLVESGGGLVQAGGSLRLSCAASGSISANYAMGWYRQAPGKERELVAAISRRGASTYYADSVKGRFTISRDNAKNTVYLQMNSLKPEDTAVYYCNAKKYHVPGVDYWGQGTQVTVSS | high polyreactivity
29 | KVQLVESGGGLVQAGGSLRLSCAASGSTFSLYTLGGYRQAPGTERELVAAITNGGSTKYADSVKGRFTISRDNAKNTDYFQMNSLKPEDTAVYYCAALYSHYYWIEYDYWGQGTQVTVST | low polyreactivity
30 | KVQLVESGGGLVQAGGSLRLSCAASGSTFYQYAMGWYRQAPGKERELVAVITGSGGSTYYADSVKGRFTISRDNAKNTVYLQMNSLKPEDTAVYYCAAGARYFKYRTTSLGGNYWGQGTQVTVSS | high polyreactivity
31 | KVQLVESGGGLVQAGGSLRLSCDASGSTFQYYTMGWYRQAPGKESELVAAISADGGNTYYADSVKGRFTISRDNAKNTVYLQMNSLKPEDTAVYYCNADVSLTLRTLVPGRAYDYWGQGTQVTVSS | low polyreactivity
